Assay results published in patent US20240383959A1, “CELL-FREE METHODS AND COMPOSITIONS COMPRISING TAGLESS THERAPEUTIC HORMONES” (Northwestern University, priority 2021, published 2024).

Tests used:
Escherichia coli MG1655 = test: Plate-based growth inhibition assay; format: cell-based; details: overnight incubation, 384 well plate, two replicates; peptide purified from CFPS
Protocol: Antimicrobial peptide activity was tested with a plate-based growth inhibition study. A 5 ml culture of Escherichia coli MG1655 was grown overnight on Luria Broth (LB) from a glycerol stock. On the day of the assay, the overnight culture was diluted to an OD of 0.08 in LB and then grown to mid log phase (OD ˜0.5). The mid log phase cells were diluted to […] (assuming 1 OD=8×10^8 cells/ml) into LB with 0.005% Antifoam 204 (Sigma A6426) and 1 mg/ml BSA (Sigma-Aldrich A2153-100G). 5 μl of these cells were added to 10 μl of purified antimicrobial peptide in a UV-sterilized 384 well, clear bottom plate (Greiner Bio-One 781096). Positive controls included 10 μl of the wash buffer the hormones were dissolved in and 10 μl of a no DNA control where no DNA template was added to the CFPS reactions, but the sample was treated exactly like the other antimicrobial peptide samples. Negative controls included a final kanamycin concentration of 50 μg/ml and adding 10 μl of the LB with 0.005% Antifoam 204 and 1 mg/ml BSA without E. coli cells. The plate was sealed with a microseal B adhesive (Bio-Rad MSB1001) and incubated in a plate reader with continuous shaking for 18 hr at 37° C. and absorbance measurements at 600 nm every 15 min.

[1] = target: T1, extracellular domain of PTH receptor (Homo sapiens, UniProt Q03431); test: AlphaLISA cross-titration of PTH and PTH receptor; format: binding; details: sFLAG-tagged PTH, anti-FLAG donor beads; His-tagged PTH receptor, nickel chelate acceptor beads
T1 construct: purchased Abcam ab182670
T1 sequence (Q03431 27-186 limits assumed): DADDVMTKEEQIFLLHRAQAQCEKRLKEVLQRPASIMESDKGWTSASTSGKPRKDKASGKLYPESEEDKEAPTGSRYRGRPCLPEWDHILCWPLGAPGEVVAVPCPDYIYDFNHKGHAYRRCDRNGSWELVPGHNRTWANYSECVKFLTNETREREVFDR

[2] = target: T2, parathyroid hormone receptor (Homo sapiens, UniProt Q03431); test: Biolayer interferometry (BLI) of PTH binding to its receptor; details: undiluted CFPS PTH or 67 μg/ml commercial PTH; with and without receptor on tip
T2 construct: purchased R&D systems 5709-PR-50
T2 sequence (Q03431 27-186 limits assumed): T1 sequence (Q03431 27-186 limits assumed)
Text: In fact, the entire sequences except for the two N-terminal and C-terminal amino acids were confirmed for both GLP-1 mutant and GLP-1 in these experiments. The peptide hormones are cleaved precisely at the C-terminus of SUMO to give tagless hormones as expected. […] There was low signal relative to GH, however, the binding signal is still more than 3 standard deviations above the background noise. Unfortunately, this binding was unable to be confirmed with BLI, likely because the hormone is too small (3.5 kDa) to generate enough of a wavelength shift to be detected by the instrument (FIG. 9f). […] Full-length parathyroid hormone was detected in the deconvoluted LC-MS spectra with an observed mass of 9424.66 Da, which matches the theoretical mass of 9424.73 Da with an error of 7.4 ppm (FIG. 10a). PTH was also detected by two orthogonal antibodies in a commercial sandwich ELISA assay (Biomatik EKF58372). The concentration was determined to be 24±11 μg/ml with 4 dilutions of a single sample (FIG. 10a). This value is approximately 80% of that detected by BCA and densitometry. […] Black lines represent a commercially purchased positive control PTH (OriGene SA6052) where there is no receptor immobilized on the lightly shaded line and receptor immobilized with the dark line. […]

Substance | Growth of E. coli MG1655 (Escherichia coli MG1655) | PTH interaction with extracellular domain of its receptor (AlphaLISA) [1] | PTH binding to extracellular domain of its receptor (BLI) [2]
Melittin | inhibiting growth of the bacteria |  | 
Parathyroid Hormone [PTH] |  | very low signal that has a typical binding pattern | unable to detect PTH binding
positive control PTH: commercially purchased positive control PTH (OriGene SA6052) [reference compound] |  |  | high background binding
